Experimental data reported in paper doi:10.1101/348268.

Key:
[1] = biological target: Mesoplasma florum ribonucleotide reductase protein R2 (MfR2), active form with meta-hydroxylated Tyr126 (DOPA) (Mesoplasma florum); assay: crystal structure
[2] = biological target: Mesoplasma florum ribonucleotide reductase protein R2 (MfR2), inactive form with unmodified Tyr126 (Mesoplasma florum); assay: crystal structure

Row | Substance | stoichiometry N [1] | stoichiometry N [2]
1 | Mesoplasma florum ribonucleotide reductase protein R2 (MfR2), active form with meta-hydroxylated Tyr126 (DOPA) (enzyme) | 2 | 
2 | Mesoplasma florum ribonucleotide reductase protein R2 (MfR2), inactive form with unmodified Tyr126 (enzyme) |  | 2
